# Read-outs that look alike come from different tables or passages of the source.
# B1: TM0077 (Thermotoga maritima MSB8) (protein)
# chain: MAFFDLPLEELKKYRPERYEEKDFDEFWEETLAESEKFPLDPVFERMESHLKTVEAYDVTFSGYRGQRIKGWLLVPKLEEEKLPCVVQYIGYNGGRGFPHDWLFWPSMGYICFVMDTRGQGSGWLKGDTPDYPEGPVDPQYPGFMTRGILDPRTYYYRRVFTDAVRAVEAAASFPQVDQERIVIAGGSQGGGIALAVSALSKKAKALLCDVPFLCHFRRAVQLVDTHPYAEITNFLKTHRDKEEIVFRTLSYFDGVNFAARAKIPALFSVGLMDNICPPSTVFAAYNYYAGPKEIRIYPYNNHEGGGSFQAVEQVKFLKKLFEKG
# B2: TM0077-paraoxon complex (TM0077 with DEP-modified Ser188) (enzyme, Thermotoga maritima, UniProt Q9WXT2 1-325, looked up)
# chain: B1 chain
# modifications: diethyl-phosphate (DEP) moiety covalently bound to the Oγ atom of Ser188
# B3: selenomethionine-substituted TM0077 (acetyl esterase from Thermotoga maritima) (enzyme, UniProt Q9WXT2 1-325, looked up)
# chain: B1 chain
# modifications: selenomethionine-substituted (selenomethionine in place of methionine)
# B4: native TM0077 (acetyl esterase from Thermotoga maritima) (enzyme, UniProt Q9WXT2 1-325, looked up)
# chain: B1 chain
# B5: TM0077-PMSF complex (TM0077 with PMS-modified Ser188) (enzyme, Thermotoga maritima, UniProt Q9WXT2 1-325, looked up)
# chain: B1 chain
# modifications: phenylmethyl sulfonyl (PMS) moiety covalently bound to the Oγ atom of Ser188
# Tests used:
# XloA = XloA (Thermotoga maritima, UniProt Q9WXT1); assay: p-nitrophenol release at […] nm; format: biochemical; conditions: data not shown; auxiliary enzyme
# purified protein [1] = substrate: CC(=O)O[C@@H]1CO[C@@H](Oc2ccc([N+](=O)[O-])cc2)[C@H](O)[C@H]1O; assay: purified protein; format: biochemical, Thermotoga maritima; conditions: 0.1 M sodium phosphate pH 7, 60 °C, excess XloA
# purified protein [2] = substrate: CC(=O)O[C@@H]1[C@@H](O)[C@H](Oc2ccc([N+](=O)[O-])cc2)OC[C@H]1O; assay: purified protein; format: biochemical, Thermotoga maritima; conditions: 0.1 M sodium phosphate pH 7, 60 °C, excess XloA
# purified protein [3] = substrate: CC(=O)Oc1ccc([N+](=O)[O-])cc1; assay: purified protein; format: biochemical, Thermotoga maritima; conditions: 50 mM citrate-phosphate pH 6, 70 °C (standard assay)
# purified protein [4] = substrate: CCC(=O)Oc1ccc([N+](=O)[O-])cc1; assay: purified protein; format: biochemical, Thermotoga maritima; conditions: 50 mM citrate-phosphate pH 6, 70 °C (standard assay)
# purified protein [5] = substrate: CC(=O)O[C@H]1[C@H](Oc2ccc([N+](=O)[O-])cc2)OC[C@@H](O)[C@@H]1O; assay: purified protein; format: biochemical, Thermotoga maritima; conditions: 0.1 M sodium phosphate pH 7, 60 °C, excess XloA
# crystal structure [6] = biological target: the molecule itself; assay: crystal structure
# crystal structure [7] = biological target: the molecule itself; assay: crystal structure; remark: listed apart in the source
molecule,measurement,setting,value
O=[N+]([O-])c1ccc(O[C@@H]2OC[C@@H](O)[C@H](O)[C@H]2O)cc1 [4-nitrophenyl β-D-xylopyranoside],p-nitrophenol release at 405 nm,XloA,its activity was confirmed by measuring release of p-nitrophenol from the substrate pNP-Xyl
B1,Km,purified protein [1],4.0 ± 0.1 mM
same,kcat,purified protein [1],78.6 ± 12.9 s⁻¹
same,kcat/Km,purified protein [1],19700 ± 3300 M⁻¹ s⁻¹
same,Km,purified protein [2],4.2 ± 0.4 mM
same,kcat,purified protein [2],70.1 ± 7.7 s⁻¹
same,kcat/Km,purified protein [2],16700 ± 2400 M⁻¹ s⁻¹
same,Km,purified protein [3],0.185 ± 0.026 mM
same,kcat,purified protein [3],57.5 ± 2.2 s⁻¹
same,kcat/Km,purified protein [3],311000 ± 45300 M⁻¹ s⁻¹
same,Km,purified protein [4],0.137 ± 0.013 mM
same,kcat,purified protein [4],41.3 ± 1.1 s⁻¹
same,kcat/Km,purified protein [4],302000 ± 29700 M⁻¹ s⁻¹
same,Km,purified protein [5],3.6 ± 0.5 mM
same,kcat,purified protein [5],76.1 ± 19.2 s⁻¹
same,kcat/Km,purified protein [5],21100 ± 6100 M⁻¹ s⁻¹
B2,stoichiometry N,crystal structure [6],6
B3,stoichiometry N,crystal structure [7],6
B4,stoichiometry N,crystal structure [6],6
B5,stoichiometry N,crystal structure [6],6

# Reference: paper PMC3348966 (Proteins, 2012)
